pEC50, pIC50, pKd: −log10 of the molar value.

Test [1] addresses human CTLA-4 (Y166G and Y183G) expressed on CHO-K1.hCTLA-4 cells (human) (UniProt P16410). The test can be described thus: CELISA, blockade of biotinylated hCD86/Fc binding to CHO-K1.hCTLA-4 cells (Example 6).
Test [2] has the same target. The test can be described thus: CELISA on CHO-K1.hCTLA-4 cells (Example 6).
The next test concerns the target rhCTLA-4/Fc/6His (human). The test can be described thus: BLI (Octet RED96), antibody amine-coupled to biosensor, rhCTLA-4/Fc 2.5-40 nM, 1:1 global fit. Background: Biolayer interferometry detects binding as a change in optical thickness at a sensor tip.
A further test deals with human CTLA-4 (human) (UniProt P16410). The test can be described thus: CELISA on CHO-K1 cells transiently transfected with human CTLA-4, panel Human.
In test [3] the target is human CTLA-4 (Y166G and Y183G) expressed on CHO-K1.hCTLA-4 cells (human) (UniProt P16410). Put plainly: CELISA, blockade of biotinylated hCD80/Fc binding to CHO-K1.hCTLA-4 cells (Example 6).
The target in test [4] is Mou-Hum-CTLA-4 (mouse/human chimera). Put plainly: CELISA on CHO-K1 cells transiently transfected with Mou-Hum-CTLA-4, panel Mouse/Human.
Chain of Mou-Hum-CTLA-4 (mouse/human chimera) (chain, as listed by the source mutant limits assumed): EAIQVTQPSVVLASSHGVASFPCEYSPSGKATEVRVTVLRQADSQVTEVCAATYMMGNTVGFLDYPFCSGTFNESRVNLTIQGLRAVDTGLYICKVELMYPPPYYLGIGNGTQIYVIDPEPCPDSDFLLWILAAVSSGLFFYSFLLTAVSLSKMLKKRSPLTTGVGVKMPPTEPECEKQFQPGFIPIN

Chain of CP-675,206 (antibody) (VH): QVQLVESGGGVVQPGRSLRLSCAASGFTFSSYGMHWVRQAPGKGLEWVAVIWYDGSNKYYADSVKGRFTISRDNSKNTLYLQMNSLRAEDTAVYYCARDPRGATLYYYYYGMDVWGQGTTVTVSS
Chain of CP-675,206 (antibody) (VL): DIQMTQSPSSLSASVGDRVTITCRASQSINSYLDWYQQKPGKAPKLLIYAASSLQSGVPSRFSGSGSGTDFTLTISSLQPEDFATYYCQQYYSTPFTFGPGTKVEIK
Chain of human CTLA-4 (Y166G and Y183G) expressed on CHO-K1.hCTLA-4 cells (human) (P16410 36-223 Y201G/Y218G limits assumed): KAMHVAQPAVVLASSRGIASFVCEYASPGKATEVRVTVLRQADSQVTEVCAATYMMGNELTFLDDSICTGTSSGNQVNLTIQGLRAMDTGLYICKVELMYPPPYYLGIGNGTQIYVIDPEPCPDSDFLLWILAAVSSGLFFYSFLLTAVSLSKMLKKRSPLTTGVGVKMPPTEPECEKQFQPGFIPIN
Chain of human CTLA-4 (human) (P16410 36-223 limits assumed): as the sequence (P16410 36-223 Y201G/Y218G limits assumed) above, with G166Y, G183Y counted along it
Chain of rhCTLA-4/Fc/6His (human) (chain, as listed by the source limits assumed): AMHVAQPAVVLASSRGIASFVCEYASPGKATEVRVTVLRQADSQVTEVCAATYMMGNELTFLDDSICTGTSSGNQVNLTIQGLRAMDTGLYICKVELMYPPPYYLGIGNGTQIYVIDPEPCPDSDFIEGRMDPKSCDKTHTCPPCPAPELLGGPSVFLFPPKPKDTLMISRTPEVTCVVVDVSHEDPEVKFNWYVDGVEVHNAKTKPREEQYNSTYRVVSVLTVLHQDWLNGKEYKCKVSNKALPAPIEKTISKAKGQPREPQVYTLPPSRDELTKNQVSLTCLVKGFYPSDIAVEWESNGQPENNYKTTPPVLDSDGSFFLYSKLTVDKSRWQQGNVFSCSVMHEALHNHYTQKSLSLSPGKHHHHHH

Take CP-675,206 (antibody): the values for the pIC50 in test [1] and in test [3] were 8.77 and 8.76, respectively. Also, the pEC50 (in general, −log10 of the EC50, conventionally taken in molar units) in test [2] is 10.43. In addition, in the test with rhCTLA-4/Fc/6His (human), the pKd (usually the Kd on a negative log10 scale, so that one unit is a factor of ten) is 8.47. Besides, the values for the concentration for a half-maximal effect (EC50 (read off the curve)) (with human CTLA-4 (human); in test [4]) were 0.05 nM and 0.04 nM, respectively.

These data come from patent US20180037654A1.
